# According to the supplement of paper PMC10567573:
# B1: STEAP1 (parent)
# chain: WMLTRKQFGLLSFFFAVLHAIYSL
# B2: PCDHGA10 (parent)
# chain: FGIEIEVTDINDNAPKFQAENLDV
# Variants of: B1
# Experiment: protein stability index of a GFP-peptide fusion (GPS, HEK-293T) (PSI 1-6); higher = more stable
# Details: c terminus: a fixed tail appended
# 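Also: lentivirally expressed fusions sorted by FACS into six bins by GFP to DsRed ratio, PSI derived from sequencing read proportions per bin multiplied by bin number.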
row,Variant,protein stability index
1,WMLTRKQFGLLSFFFAVYHAIYSL,2.13
2,WMLTRKQFGLLSFFFAVLAAIYSL,3.76
3,WMLTRKQFGLLSFFFAVLCAIYSL,2.94
4,WMLTRKQFGLLSFFFAVLDAIYSL,1.82
5,WMLTRKQFGLLSFFFAVLEAIYSL,1.65
6,WMLTRKQFGLLSFFFAVLFAIYSL,2.76
7,WMLTRKQFGLLSFFFAVLGAIYSL,2.77
8,WMLTRKQFGLLSFFFAVLIAIYSL,2.58
9,WMLTRKQFGLLSFFFAVLKAIYSL,2.16
10,WMLTRKQFGLLSFFFAVLLAIYSL,2.59
11,WMLTRKQFGLLSFFFAVLMAIYSL,3.02
12,WMLTRKQFGLLSFFFAVLNAIYSL,1.89
13,WMLTRKQFGLLSFFFAVLPAIYSL,3.26
14,WMLTRKQFGLLSFFFAVLQAIYSL,2.22
15,WMLTRKQFGLLSFFFAVLRAIYSL,1.74
16,WMLTRKQFGLLSFFFAVLSAIYSL,2.34
17,WMLTRKQFGLLSFFFAVLTAIYSL,2.67
18,WMLTRKQFGLLSFFFAVLVAIYSL,3.14
19,WMLTRKQFGLLSFFFAVLWAIYSL,3.67
20,WMLTRKQFGLLSFFFAVLYAIYSL,3.25
21,WMLTRKQFGLLSFFFAVLHCIYSL,2.18
22,WMLTRKQFGLLSFFFAVLHDIYSL,2.62
23,WMLTRKQFGLLSFFFAVLHEIYSL,2.56

row,Variant,protein stability index
1,WMLTRKQFGLLSFFFAVLHFIYSL,2.8
2,WMLTRKQFGLLSFFFAVLHGIYSL,2.13
3,WMLTRKQFGLLSFFFAVLHHIYSL,1.62
4,WMLTRKQFGLLSFFFAVLHIIYSL,1.88
5,WMLTRKQFGLLSFFFAVLHKIYSL,1.78
6,WMLTRKQFGLLSFFFAVLHLIYSL,2.46
7,WMLTRKQFGLLSFFFAVLHMIYSL,1.66
8,WMLTRKQFGLLSFFFAVLHNIYSL,2.02
9,WMLTRKQFGLLSFFFAVLHPIYSL,2.51
10,WMLTRKQFGLLSFFFAVLHQIYSL,2.69
11,WMLTRKQFGLLSFFFAVLHRIYSL,1.73
12,WMLTRKQFGLLSFFFAVLHSIYSL,2.41
13,WMLTRKQFGLLSFFFAVLHTIYSL,1.36
14,WMLTRKQFGLLSFFFAVLHVIYSL,1.08
15,WMLTRKQFGLLSFFFAVLHWIYSL,1.79
16,WMLTRKQFGLLSFFFAVLHYIYSL,2.1
17,WMLTRKQFGLLSFFFAVLHAAYSL,3.66
18,WMLTRKQFGLLSFFFAVLHACYSL,2.21
19,WMLTRKQFGLLSFFFAVLHADYSL,3.17
20,WMLTRKQFGLLSFFFAVLHAEYSL,4.75
21,WMLTRKQFGLLSFFFAVLHAFYSL,2.26
22,WMLTRKQFGLLSFFFAVLHAGYSL,2.17
23,WMLTRKQFGLLSFFFAVLHAHYSL,3.26

row,Variant,protein stability index
1,WMLTRKQFGLLSFFFAVLHAKYSL,2.41
2,WMLTRKQFGLLSFFFAVLHALYSL,3.18
3,WMLTRKQFGLLSFFFAVLHAMYSL,1.66
4,WMLTRKQFGLLSFFFAVLHANYSL,2.81
5,WMLTRKQFGLLSFFFAVLHAPYSL,3.02
6,WMLTRKQFGLLSFFFAVLHAQYSL,1.61
7,WMLTRKQFGLLSFFFAVLHARYSL,3.01
8,WMLTRKQFGLLSFFFAVLHASYSL,2.16
9,WMLTRKQFGLLSFFFAVLHATYSL,1.05
10,WMLTRKQFGLLSFFFAVLHAVYSL,2.18
11,WMLTRKQFGLLSFFFAVLHAWYSL,1.63
12,WMLTRKQFGLLSFFFAVLHAYYSL,1.95
13,WMLTRKQFGLLSFFFAVLHAIASL,1.58
14,WMLTRKQFGLLSFFFAVLHAICSL,2.43
15,WMLTRKQFGLLSFFFAVLHAIDSL,2.97
16,WMLTRKQFGLLSFFFAVLHAIESL,2.93
17,WMLTRKQFGLLSFFFAVLHAIFSL,1.56
18,WMLTRKQFGLLSFFFAVLHAIGSL,2.2
19,WMLTRKQFGLLSFFFAVLHAIHSL,2.1
20,WMLTRKQFGLLSFFFAVLHAIISL,1.1
21,WMLTRKQFGLLSFFFAVLHAIKSL,2.29
22,WMLTRKQFGLLSFFFAVLHAILSL,1.79
23,WMLTRKQFGLLSFFFAVLHAIMSL,2.45

row,Variant,protein stability index
1,WMLTRKQFGLLSFFFAVLHAINSL,1.34
2,WMLTRKQFGLLSFFFAVLHAIPSL,2.29
3,WMLTRKQFGLLSFFFAVLHAIQSL,2.21
4,WMLTRKQFGLLSFFFAVLHAIRSL,2.46
5,WMLTRKQFGLLSFFFAVLHAISSL,1.63
6,WMLTRKQFGLLSFFFAVLHAITSL,2.03
7,WMLTRKQFGLLSFFFAVLHAIVSL,2.48
8,WMLTRKQFGLLSFFFAVLHAIWSL,1.99
9,WMLTRKQFGLLSFFFAVLHAIYAL,1.36
10,WMLTRKQFGLLSFFFAVLHAIYCL,1.75
11,WMLTRKQFGLLSFFFAVLHAIYDL,1.95
12,WMLTRKQFGLLSFFFAVLHAIYEL,1.49
13,WMLTRKQFGLLSFFFAVLHAIYFL,1.79
14,WMLTRKQFGLLSFFFAVLHAIYGL,1.48
15,WMLTRKQFGLLSFFFAVLHAIYHL,1.71
16,WMLTRKQFGLLSFFFAVLHAIYIL,1.92
17,WMLTRKQFGLLSFFFAVLHAIYKL,2.01
18,WMLTRKQFGLLSFFFAVLHAIYLL,1.27
19,WMLTRKQFGLLSFFFAVLHAIYML,2.3
20,WMLTRKQFGLLSFFFAVLHAIYNL,2.21
21,WMLTRKQFGLLSFFFAVLHAIYPL,1.89
22,WMLTRKQFGLLSFFFAVLHAIYQL,1.39
23,WMLTRKQFGLLSFFFAVLHAIYRL,2.43

row,Variant,protein stability index
1,WMLTRKQFGLLSFFFAVLHAIYTL,1.55
2,WMLTRKQFGLLSFFFAVLHAIYVL,1.94
3,WMLTRKQFGLLSFFFAVLHAIYWL,2
4,WMLTRKQFGLLSFFFAVLHAIYYL,2.37
5,WMLTRKQFGLLSFFFAVLHAIYSA,1.91
6,WMLTRKQFGLLSFFFAVLHAIYSC,2
7,WMLTRKQFGLLSFFFAVLHAIYSD,2.7
8,WMLTRKQFGLLSFFFAVLHAIYSE,1.4
9,WMLTRKQFGLLSFFFAVLHAIYSF,1.46
10,WMLTRKQFGLLSFFFAVLHAIYSG,2.74
11,WMLTRKQFGLLSFFFAVLHAIYSH,1.83
12,WMLTRKQFGLLSFFFAVLHAIYSI,1.86
13,WMLTRKQFGLLSFFFAVLHAIYSK,3.44
14,WMLTRKQFGLLSFFFAVLHAIYSM,1.97
15,WMLTRKQFGLLSFFFAVLHAIYSN,1.98
16,WMLTRKQFGLLSFFFAVLHAIYSP,2.08
17,WMLTRKQFGLLSFFFAVLHAIYSQ,1.94
18,WMLTRKQFGLLSFFFAVLHAIYSR,1.84
19,WMLTRKQFGLLSFFFAVLHAIYSS,2.14
20,WMLTRKQFGLLSFFFAVLHAIYST,2.26
21,WMLTRKQFGLLSFFFAVLHAIYSV,2.27
22,WMLTRKQFGLLSFFFAVLHAIYSW,2.13
23,WMLTRKQFGLLSFFFAVLHAIYSY,2

# Variants of: B2
# Experiment: as above
# Details: c terminus: a fixed tail appended
row,Variant,protein stability index
1,FGIEIEVTDINDNNPKFQAENLDV,3.35
2,FGIEIEVTDINDNTPKFQAENLDV,2.9
3,FGIEIEVTDINDNAYKFQAENLDV,2.23
4,FGIEIEVTDINDNASKFQAENLDV,3.14
5,FGILIEVTDINDNAPKFQAENLDV,2.28
6,FGIEIESTDINDNAPKFQAENLDV,4.63
7,FGIEIEVTDRNDNAPKFQAENLDV,3.73
8,FGIEIEVTDINDNAPLFQAENLDV,2.31
9,FGIEIEVTDINDNFPKFQAENLDV,2.35
10,FGIEIEVTAINDNAPKFQAENLDV,1.98
11,FGIEIEVTDINDNAPKFQAENGDV,3.97
12,FGIEIEVTDQNDNAPKFQAENLDV,4.05
13,FGIEIEVTDINDNAPKMQAENLDV,3.58
14,FGIEIEVTDINDNAPKFQAYNLDV,2.59
15,FGIEIEVGDINDNAPKFQAENLDV,3.27
16,FGIEIEVTDINDNAPKFQGENLDV,3.51
17,FGIIIEVTDINDNAPKFQAENLDV,1.75
18,FGIEIEVTDINDNAPKFQAENNDV,3.69
19,FGIEHEVTDINDNAPKFQAENLDV,4.91
20,FGIEREVTDINDNAPKFQAENLDV,4.79
21,FGIEIEVTDINDNAPKFQAENLKV,2.08
22,FGIEIEVTDINDNAPKFQARNLDV,1.83
23,FGIEIEVTDINDNAPKFQAEQLDV,2.8
24,FGIEIEVTDINDNAPKFQAENLDN,3.28
25,FGIEIEVTDINDNAPKFKAENLDV,3

row,Variant,protein stability index
1,FGIEIEVMDINDNAPKFQAENLDV,2.19
2,VGIEIEVTDINDNAPKFQAENLDV,2.93
3,FGIEIEVTDINDNAPKRQAENLDV,3.9
4,FGIEIEVTDLNDNAPKFQAENLDV,2.63
5,FGFEIEVTDINDNAPKFQAENLDV,2.71
6,FGIEIEVTDIWDNAPKFQAENLDV,1.96
7,FGIEIEVTDVNDNAPKFQAENLDV,3.24
8,FGIAIEVTDINDNAPKFQAENLDV,2.46
9,FGIEIEVTDINDNSPKFQAENLDV,3.13
10,FGIEIEVTTINDNAPKFQAENLDV,1.96
11,FGIFIEVTDINDNAPKFQAENLDV,1.66
12,FGTEIEVTDINDNAPKFQAENLDV,4.65
13,FGREIEVTDINDNAPKFQAENLDV,4.52
14,FGIEIEVTDINDNAPKFIAENLDV,2.13
15,FGIEIEVTDINMNAPKFQAENLDV,1.75
16,FGIEIEVTDINDNAPKFQAEFLDV,1.84
17,QGIEIEVTDINDNAPKFQAENLDV,4.58
18,FGIEIEVTDINDNAPKFQMENLDV,2.53
19,FGIEIEVTDINDNAPKLQAENLDV,3.33
20,FGIEIEVTDINDNDPKFQAENLDV,3.89
21,FGIEIEVTDINDNAPKFMAENLDV,2.13
22,HGIEIEVTDINDNAPKFQAENLDV,4.67
23,FGIEIEVTDINDNADKFQAENLDV,3.62
24,FGIEIEVTDINDNAPKFQAENKDV,4.02
25,FGIEISVTDINDNAPKFQAENLDV,2.69

row,Variant,protein stability index
1,FGIEIEVTDINWNAPKFQAENLDV,1.6
2,FGIEIEVTDINDNAPKFQDENLDV,3.56
3,FGIEIEVTDINDNAPKFQAENLDD,4.22
4,FGPEIEVTDINDNAPKFQAENLDV,4.96
5,FGIEIEVTDINDNAPCFQAENLDV,2.45
6,FGIEIEVTDINDNAPHFQAENLDV,2.76
7,FGIEIEVTYINDNAPKFQAENLDV,3.18
8,FGIEIEVWDINDNAPKFQAENLDV,2.27
9,FGIEIEVTDINDNAPPFQAENLDV,3.31
10,FGIEIEVTDINDNAPKFQAENLHV,1.8
11,FGIEAEVTDINDNAPKFQAENLDV,4.42
12,FGIEIEVCDINDNAPKFQAENLDV,2.48
13,FGIEIDVTDINDNAPKFQAENLDV,3.62
14,FGIEIEVTDINDNAPKFQAVNLDV,1.91
15,FGIEIEVTDINDNAPKFQAENLDF,2.64
16,FGIEIEVTDINDNGPKFQAENLDV,3.08
17,FGIEIEVTDINDNAPEFQAENLDV,3.88
18,FGIEIEVTDINDNAPKFQAECLDV,2.47
19,FGIEIEVTDINDNAQKFQAENLDV,3.11
20,FGIEIEVTDINDNAPKFQAENSDV,4.17
21,FGIEIEVTDINDNAPKFQAENLFV,1.55
22,FGIEFEVTDINDNAPKFQAENLDV,3.49
23,FGIEIEVTDINDNAHKFQAENLDV,2.73
